# Assay results published in publication PMC3035937 (Journal of molecular biology, 2010).
# B1: GST-SpHus1 (natural protein, S. pombe, UniProt P78955 1-287, looked up)
# chain: MRFKTRISNLYTLTRLVQALDKIGRFCWLRLMPETVNFVIVPDFRMTQVWSVLEVETIFEDYVVQSNADNVINLEVPIDNFYKALRSAANASDSTVRLSKKNNQPLLSLSTTWSGRAFGSNIVTHNIPVRVLSQSYVSVIKEPTAPEPDCHIFLPQLNFLRHVVDKYKSLSDRIIMSANMSGELQLSVNIPSARVSTKWKGLENPELDPSQVEDISRHPSQTRAPEEFVHMRLDSKDLVNMLKISSVAKRVIACFCEGHALVLYVYITDPEDEHTAVLTYYISTYVD
# B2: purified SpHst4 (SpHst4-His) (natural protein, S. pombe, UniProt Q9UR39 1-415, looked up)
# chain: MKVEEHVPLIQESRKRKCQSSENASKRQQLLSKLPLRLHTGNENVDLSPLVSAIRKAKRIVVVTGAGISCDAGIPDFRSSEGLFSSLRAEYKLNCSGKELFDGSVYRDLKSVNIFHAMIRKLHMLSNNARPTDFHLFLSQLAQESKLLRLYTQNIDFLETRLEGLQTCIPLPQSAPWPTTIPLHGTLEVVSCTRCSFLKKFNPDIFDRNGVTVCPDCKTENEVRRIAGKRSVIEGCLRPRIVLYNEIHPDSESIGSVCSQDLKSRPDCLIVAGTSCKIPGVKRIIKEMSNCVHKQKGNVIWLNYDEPTKDFLNLCDLVVQGDLQIAIRRLKPLLDAPSWKLKSHSAKRTSKQKSSEQTKITSSTKITKAIGLNTKSNDSSKKDNTSFQLHQVLNSIEIPKVEIKQEVEYATPSPL
# B3: GST-SpRad1 (natural protein, S. pombe, UniProt P22193 1-323, looked up)
# chain: MFQAETVCLKQIQSTLRCIDFSKECTIEITSRGLRFAVEESQSLQAHAFLDKSLFQTFNFQGDSDGDTYMFQTMISPLLQSLSIYTDGKERISTSAWDQPTVNIMHKRGVICKVQYNGPGCPFIWEVEEMAGYATACELLTMECEDDVDINRLASTLCTKIIMKSNWLYDALVELDNNMGENLIIHTSSQKSTFLLRCVGALSTTEIEYPNEKSVLESFETDSENTYSYRFSLIRHALKALQVGSKVNLRIDENGTLSIQIMLVGQEGLCTFVDFCIVPLDLVSEDEEEDEEEEPAESNQSDNNVLRNDPNYRGDAETEDEDS
# Key:
# [1] = target: B2; assay: pull-down
# GST-SpRad9 = target: T1, GST-SpRad9 (S. pombe, UniProt P26306 1-426); assay: pull-down
# T1 sequence (looked up): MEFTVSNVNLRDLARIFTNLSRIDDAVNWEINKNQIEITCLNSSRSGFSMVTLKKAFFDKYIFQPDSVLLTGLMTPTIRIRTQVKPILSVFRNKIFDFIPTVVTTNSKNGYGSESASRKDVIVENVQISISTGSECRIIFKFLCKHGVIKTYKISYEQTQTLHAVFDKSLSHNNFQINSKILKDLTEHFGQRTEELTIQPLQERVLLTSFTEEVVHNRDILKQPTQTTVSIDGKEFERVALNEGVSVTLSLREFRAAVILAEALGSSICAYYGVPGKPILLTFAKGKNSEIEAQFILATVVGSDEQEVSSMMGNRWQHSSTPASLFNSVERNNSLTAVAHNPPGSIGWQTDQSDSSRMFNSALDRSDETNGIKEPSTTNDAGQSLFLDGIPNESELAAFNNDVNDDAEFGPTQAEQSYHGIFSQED
Binder,binding result [1],binding result (GST-SpRad9)
B1,binds,–
B2,–,binds
B3,binds,–
